This note sets out measurements from PMC10055539 (Research Square, 2023).

To fix the notation:
B1: Z-Tyr-Ala (carboxybenzyl-tyrosine-alanine), HbYX-like dipeptide mimetic (peptide)
peptide: Cbz-Tyr-Ala
B2: N-acetylated PAN C-terminus peptide, six residues (peptide)
peptide: Ac-LDVLYR
B3: Thermoplasma acidophilum 20S proteasome β subunit (natural protein, T. acidophilum, UniProt P28061 9-211, looked up)
chain: TTTVGITLKDAVIMATERRVTMENFIMHKNGKKLFQIDTYTGMTIAGLVGDAQVLVRYMKAELELYRLQRRVNMPIEAVATLLSNMLNQVKYMPYMVQLLVGGIDTAPHVFSIDAAGGSVEDIYASTGSGSPFVYGVLESQYSEKMTVDEGVDLVIRAISAAKQRDSASGGMIDVAVITRKDGYVQLPTDQIESRIRKLGLIL
notes: proteasome subunit beta of the Thermoplasma acidophilum 20S proteasome; Single subunit of m1, written for the subunit-subunit rows of the structures; also called T20S β subunit; source: part of the purified T20S (purified as described [42], via 8XHis tags on the C-terminus of β subunit)
B4: Thermoplasma acidophilum 20S proteasome α subunit, wild type (natural protein, T. acidophilum)
chain: MQQGQMAYDRAITVFSPDGRLFQVEYAREAVKKGSTALGMKFANGVLLISDKKVRSRLIEQNSIEKIQLIDDYVAAVTSGLVADARVLVDFARISAQQEKVTYGSLVNIENLVKRVADQMQQYTQYGGVRPYGVSLIFAGIDQIGPRLFDCDPAGTINEYKATAIGSGKDAVVSFLEREYKENLPEKEAVTLGIKALKSSLEEGEELKAPEIASITVGNKYRIYDQEEVKKFL
notes: proteasome subunit alpha of the Thermoplasma acidophilum 20S proteasome; Single subunit of m1, written for the subunit-subunit rows of the structures; also called T20S α subunit; source: part of the purified T20S (purified as described [42], via 8XHis tags on the C-terminus of β subunit)
B5: Thermoplasma acidophilum 20S proteasome α subunit with the L81Y mutation (natural protein, T. acidophilum)
chain: B4 chain with L81Y
notes: proteasome subunit alpha of the Thermoplasma acidophilum 20S proteasome, L81Y; Subunit of the T20S-αL81Y proteasome whose cryo-EM structure is solved here; also called T20S-αL81Y α subunit; source: part of the purified T20S-αL81Y (overlapping PCR site-directed mutagenesis; purified via 8XHis tags on the C-terminus of β subunit)

Series [1] concerns the target Thermoplasma acidophilum wild type 20S proteasome (T. acidophilum) (UniProt P25156).
Series [2] concerns the target Mammalian 20S proteasome isolated from bovine liver (bovine (isolated from bovine liver), UniProt Q2YDE4 1-246; Q3T0Y5 1-234; Q3ZCK9 1-261; Q3ZBG0 1-248; Q5E987 1-241; Q3T0X5 …). The series can be described thus: cell-based or functional assay.
For series [3], the target named is Thermoplasma acidophilum wild type 20S proteasome (T. acidophilum) (UniProt P25156). The source holds these as a separate data set.
The target in series [4] is B4. The series can be described thus: cryo-EM structure; 0.5 mg/mL WT T20S in 50mM Tris pH 7.4, 150mM NaCl; Titan Krios; homogeneous refinement with D7 symmetry; closed gate. As to conditions: both partners purified.
Series [5] deals with the molecule itself. The series can be described thus: cryo-EM structure; 0.5 mg/mL T20S-αL81Y in 50mM Tris pH 7.4, 150mM NaCl; Titan Krios; homogeneous refinement with D7 symmetry; partially open gate.
Series [6] has as its target B5. The description is as above. As to conditions: both partners purified.
Series [7] deals with the molecule itself. The series can be described thus: cryo-EM structure; 0.5 mg/mL WT T20S in 50mM Tris pH 7.4, 150mM NaCl; Titan Krios; homogeneous refinement with D7 symmetry; closed gate.

Residue numbers refer to the chain shown, from its start. Names and notes keep the numbering of the source. Ends that are not written are not given here. * marks the point of attachment. Cbz = O=C(OCc1ccccc1)* A value given as a limit tells only on which side of the number the result lay.

“N-acetylated PAN C-terminus peptide, three residues (Ac-LYR)” displayed an LFP hydrolysis (rfu/min) by 7nM WT T20S with N-terminally acetylated peptide (200 μM), relative to DMSO; gate opening in series [1] of 2 fold.

Turning to B1, in series [2], the “nLPnLD-AMC hydrolysis by mammalian 20S (0.5 nM), dose response of ZYA, normalized to DMSO: activation at saturation” value is about 50 fold. The same molecule displayed an LFP hydrolysis (rfu/min) by 7nM WT T20S with ZYA (2.5mM), normalized to DMSO; gate opening in series [3] of 13 fold.

In the case of B2, the LFP hydrolysis (rfu/min) by 7nM WT T20S with N-terminally acetylated peptide (200 μM), relative to DMSO; gate opening in series [1] is over 10 fold.

With B3, the binding result in series [4], in series [5] and in series [6] was “binds” throughout.

Take B4: the binding result in series [7] is recorded as “binds”.

As for B5, in series [5], the binding result is recorded as “binds”.
